Data taken from publication PMC9893541 (BMC Biology, 2023).
Changes are numbered by the printed parent chain. Numbers in names are those of the source.

T1: BMP4/GDF5 heterodimer (human, UniProt P12644 293-408; P43026 382-501)
T1 construct: additional Met residue on the N-terminus of the BMP4 construct; bone morphogenetic protein 4 (BMP4), mature domain; Growth and Differentiation Factor 5 (GDF5), mature domain; Made by people from two natural mature chains; disulfide-linked dimer; also called GDF5/BMP4; copies: 1 + 1
T1 sequence 1: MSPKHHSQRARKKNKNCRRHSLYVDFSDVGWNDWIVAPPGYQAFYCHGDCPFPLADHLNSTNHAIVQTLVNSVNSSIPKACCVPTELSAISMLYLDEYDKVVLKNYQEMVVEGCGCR
T1 sequence 2: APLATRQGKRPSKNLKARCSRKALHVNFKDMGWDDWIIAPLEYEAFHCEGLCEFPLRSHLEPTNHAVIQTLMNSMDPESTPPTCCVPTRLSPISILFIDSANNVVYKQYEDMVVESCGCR

T2: FC-(Alk6)2 (UniProt O00238 14-126)
T2 construct: type 1 receptor Alk6 (BMPR1B) in a recombinant chimeric Fc-receptor; also called chimeric FC-receptor; source: bought: R&D (Cat# 505-PR-100)
T2 sequence (looked up): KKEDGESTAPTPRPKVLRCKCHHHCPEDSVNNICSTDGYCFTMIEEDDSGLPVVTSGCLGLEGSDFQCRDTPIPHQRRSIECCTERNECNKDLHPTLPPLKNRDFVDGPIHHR

B1: FC-(BMPR2)2 (Fc fusion, UniProt Q13873 27-150, looked up)
chain: SQNQERLCAFKDPYQQDLGIGESRISHENGTILCSKGSTCYGLWEKSKGDINLVKQGCWSHIGDPQECHYEECVVTTTPPSIQNGTYRFCCCSTDLCNVNFTENFPPPDTTPLSPPHSFNRDET
notes: type 2 receptor BMPR2 in a recombinant chimeric Fc-receptor; source: bought: R&D (Cat# 811-BR-100)
B2: FC-(ActRIIb)2 (Fc fusion, UniProt Q13705-1 19-137, looked up)
chain: SGRGEAETRECIYYNANWELERTNQSGLERCEGEQDKRLHCYASWRNSSGTIELVKKGCWLDDFNCYDRQECVATEENPQVYFCCCEGNFCNERFTHLPEAGGPEVTYEPPPTAPTLLT
notes: type 2 receptor ActRIIb (ACVR2B) in a recombinant chimeric Fc-receptor; also called (ActRIIB)2-Fc; source: bought: R&D (Cat# 339-RB-100/CF)
B3: FC-(Alk3)2 (Fc fusion, UniProt P36894 24-152, looked up)
chain: QNLDSMLHGTGMKSDSDQKKSENGVTLAPEDTLPFLKCYCSGHCPDDAINNTCITNGHCFAIIEEDDQGETTLASGCMKYEGSDFQCKDSPKAQLRRTIECCRTNLCNQYLQPTLPPVVIGPFFDGSIR
notes: type 1 receptor Alk3 (BMPR1A) in a recombinant chimeric Fc-receptor; also called chimeric FC-receptor; source: bought: R&D (Cat# 315-BR-100/CF)
B4: BMP4 homodimer (ligand, human)
chain: T1 sequence 1
notes: additional Met residue on the N-terminus of the BMP4 construct; bone morphogenetic protein 4 (BMP4), mature domain; Dimer stabilised by an inter-chain disulfide bond; also called homodimeric BMP4
B5: mature BMP4 (single chain) (natural protein, human)
chain: T1 sequence 1
notes: additional Met residue on the N-terminus of the BMP4 construct; bone morphogenetic protein 4 (BMP4), mature domain; The single chain before dimerisation; used for the rows on dimer formation; also called BMP4 monomer; monomeric BMP4; source: E. coli Rosetta (DE3), inclusion bodies, solubilised in urea, clarified (minimum 90 % purity)
B6: GDF5 homodimer (ligand, human, UniProt P43026 382-501, looked up)
chain: T1 sequence 2
notes: Growth and Differentiation Factor 5 (GDF5), mature domain; Dimer stabilised by an inter-chain disulfide bond; also called homodimeric GDF5; Growth and Differentiation Factor 5
B7: mature GDF5 (single chain) (natural protein, human, UniProt P43026 382-501, looked up)
chain: T1 sequence 2
notes: Growth and Differentiation Factor 5 (GDF5), mature domain; The single chain before dimerisation; used for the rows on dimer formation; also called GDF5 monomer; GDF5 chain; source: E. coli Rosetta (DE3), inclusion bodies, solubilised in urea, clarified (minimum 90 % purity)
B8: BMP2_L333P/GDF5 heterodimer (complex, human)
chain 1: QAKHKQRKRLKSSCKRHPLYVDFSDVGWNDWIVAPPGYHAFYCHGECPFPPADHLNSTNHAIVQTLVNSVNSKIPKACCVPTELSAISMLYLDENEKVVLKNYQDMVVEGCGCR
chain 2: T1 sequence 2
notes: bone morphogenetic protein 2 (BMP2), mature domain, with L333P; Growth and Differentiation Factor 5 (GDF5), mature domain, wild type; Predicted by the authors to have one disrupted type 1 site (GFBW) and one functional site (BFGW); also called mutant heterodimer; copies: 1 + 1
B9: mature BMP2 (single chain) (natural protein, human, UniProt P12643 283-396, looked up)
chain: B8 chain 1 with P51L
notes: bone morphogenetic protein 2 (BMP2), mature domain; The single chain before dimerisation; used for the rows on dimer formation; also called BMP2 monomer; BMP2 chain; source: E. coli Rosetta (DE3), inclusion bodies, solubilised in urea, clarified (minimum 90 % purity)
B10: mature BMP2 L333P (single chain) (natural protein, human, UniProt P12643 283-396, looked up)
chain: B8 chain 1
notes: bone morphogenetic protein 2 (BMP2), mature domain, with L333P; The single chain before dimerisation; used for the rows on dimer formation; also called L333P BMP2; source: E. coli Rosetta (DE3), inclusion bodies, solubilised in urea

Experiments:
BMP4/GDF5 heterodimer [1] = target: T1, BMP4/GDF5 heterodimer; assay: SPR; chimeric Fc-type 2 receptor coupled to a Series S Protein A chip; ligands 100-0.198 nM in SPR buffer, 300 s association, 1000 s dissociation; steady-state analysis; apparent affinities; average of N=2; conditions: both partners purified
BMP2/GDF5 heterodimer = target: T3, BMP2/GDF5 heterodimer (human, UniProt P12643 283-396; P43026 382-501); assay: as above; conditions: both partners purified
T3 construct: bone morphogenetic protein 2 (BMP2), mature domain; Growth and Differentiation Factor 5 (GDF5), mature domain; Made by people from two natural mature chains; disulfide-linked dimer; also called GDF5/BMP2; WT heterodimer; copies: 1 + 1

GDF5 homodimer = target: B6; assay: as above; conditions: both partners purified
BMP4/GDF5 heterodimer [2] = target: T1, BMP4/GDF5 heterodimer; assay: SPR; BIAcore T-200; chimeric Fc-type 1 receptor coupled to a Series S Protein A chip; ligands 6.25-0.049 nM flowed at 50 uL/min, 300 s association, 1000 s dissociation; 20 mM HEPES pH 7.4, 350 mM NaCl, 0.005 % P-20, 0.5 mg/mL BSA, 3.4 mM EDTA; kinetic 1:1 fit (also a bivalent fit); apparent KD = kd/ka; average of N=2; conditions: both partners purified
FC-(Alk3)2 = target: B3; assay: as above; conditions: both partners purified
FC-(BMPR2)2 = target: B1; assay: SPR; chimeric Fc-type 2 receptor coupled to a Series S Protein A chip; ligands 100-0.198 nM in SPR buffer, 300 s association, 1000 s dissociation; steady-state analysis; apparent affinities; average of N=2; conditions: both partners purified
FC-(ActRIIb)2 = target: B2; assay: as above; conditions: both partners purified
[3] = target: B7; assay: oxidative refolding of mixed chains, heparin affinity chromatography, SDS-PAGE and Western blot (reducing and non-reducing), MALDI-TOF mass spectrometry; solubilised inclusion bodies mixed in a 1:1 molar ratio, refolded 5 days in 0.1 M Tris pH 8.5, 0.5 M L-arginine, 0.3 % CHAPS, 150 mM NaCl, 1 mM reduced and 1 mM oxidized glutathione, 1 mM EDTA; heparin column eluted with 150-650 mM NaCl; disulfide-linked dimers; conditions: both partners purified
[4] = target: the molecule itself; assay: as above
FC-(Alk6)2 = target: T2, FC-(Alk6)2; assay: SPR; BIAcore T-200; chimeric Fc-type 1 receptor coupled to a Series S Protein A chip; ligands 6.25-0.049 nM flowed at 50 uL/min, 300 s association, 1000 s dissociation; 20 mM HEPES pH 7.4, 350 mM NaCl, 0.005 % P-20, 0.5 mg/mL BSA, 3.4 mM EDTA; kinetic 1:1 fit (also a bivalent fit); apparent KD = kd/ka; average of N=2; conditions: both partners purified

## B1
BMP4/GDF5 heterodimer [1]
  binding result: binds
BMP2/GDF5 heterodimer
  binding result: binds

## B2
BMP4/GDF5 heterodimer [1]
  binding result: binds
GDF5 homodimer
  binding result: binds
BMP2/GDF5 heterodimer
  binding result: binds

## B3
BMP4/GDF5 heterodimer [2]
  Kd: 0.029 nM

## B4
FC-(Alk3)2
  Kd: 0.072 nM
FC-(BMPR2)2
  binding result: binds
FC-(ActRIIb)2
  binding result: binds

## B5
[3]
  binding result: binds
[4]
  binding result: binds

## B6
FC-(Alk3)2
  Kd: 0.328 nM

## B7
[4]
  binding result: binds

## B8
FC-(Alk6)2
  fold decrease in KD (so in the source) against WT GDF5 homodimer: ~5 fold

## B9
[3]
  binding result: binds
[4]
  binding result: binds

## B10
[3]
  binding result: binds
[4]
  binding result: binds
